In PMC7367838, “Engineered CRISPR/Cas9 enzymes improve discrimination by slowing DNA cleavage to allow release of off-target DNA”:

B1: sgRNA + on-target 55-bp DNA (mixed)
RNA: GACGCAUAAAGAUGAGACGCGUUUUAGAGCUAUGCUGUUUUGGAAACAAAACAGCAUAGCAAGUUAAAAUAAGGCUAGUCCGUUAUCAACUUGAAAAAGUGGCACCGAGUCGGUGCUUUUUUUGGAUC
DNA 1: AGCTGACGTTTGTACTCCAGCGTCTCATCTTTATGCGTCAGCAGAGATTTCTGCT
DNA 2: AGCAGAAATCTCTGCTGACGCATAAAGATGAGACGCTGGAGTACAAACGTCAGCT
B2: sgRNA + off-target 55-bp DNA (3-bp PAM-distal mismatch) (mixed)
RNA: GACGCAUAAAGAUGAGACGCGUUUUAGAGCUAUGCUGUUUUGGAAACAAAACAGCAUAGCAAGUUAAAAUAAGGCUAGUCCGUUAUCAACUUGAAAAAGUGGCACCGAGUCGGUGCUUUUUUUGGAUC
DNA 1: AGCTGACGTTTGTACTCCAGCGTCTCATCTTTATGCCAGAGCAGAGATTTCTGCT
DNA 2: AGCAGAAATCTCTGCTCTGGCATAAAGATGAGACGCTGGAGTACAAACGTCAGCT

Assays:
Settings in all cases: protein: recombinant; tags: His6-MBP removed by TEV; label: 32P or 6-FAM for cleavage; tCo (position not in material) for unwinding; guide RNA (S25+S26 joined) / target strand / non-target strand; DNA duplex blunt
SpCas9 [1] = target: T1, SpCas9 (Streptococcus pyogenes, UniProt Q99ZW2 1-1368); experiment: stopped-flow and cleavage kinetics, global fit; 1/K1, initial binding step; bracketed value, footnote 3 not in material, may be fixed or from earlier work; Reaction buffer, salt, pH and temperature not in the material; Mg2+ added to start cleavage, omitted for pre-equilibration
T1 sequence (Q99ZW2 whole entry): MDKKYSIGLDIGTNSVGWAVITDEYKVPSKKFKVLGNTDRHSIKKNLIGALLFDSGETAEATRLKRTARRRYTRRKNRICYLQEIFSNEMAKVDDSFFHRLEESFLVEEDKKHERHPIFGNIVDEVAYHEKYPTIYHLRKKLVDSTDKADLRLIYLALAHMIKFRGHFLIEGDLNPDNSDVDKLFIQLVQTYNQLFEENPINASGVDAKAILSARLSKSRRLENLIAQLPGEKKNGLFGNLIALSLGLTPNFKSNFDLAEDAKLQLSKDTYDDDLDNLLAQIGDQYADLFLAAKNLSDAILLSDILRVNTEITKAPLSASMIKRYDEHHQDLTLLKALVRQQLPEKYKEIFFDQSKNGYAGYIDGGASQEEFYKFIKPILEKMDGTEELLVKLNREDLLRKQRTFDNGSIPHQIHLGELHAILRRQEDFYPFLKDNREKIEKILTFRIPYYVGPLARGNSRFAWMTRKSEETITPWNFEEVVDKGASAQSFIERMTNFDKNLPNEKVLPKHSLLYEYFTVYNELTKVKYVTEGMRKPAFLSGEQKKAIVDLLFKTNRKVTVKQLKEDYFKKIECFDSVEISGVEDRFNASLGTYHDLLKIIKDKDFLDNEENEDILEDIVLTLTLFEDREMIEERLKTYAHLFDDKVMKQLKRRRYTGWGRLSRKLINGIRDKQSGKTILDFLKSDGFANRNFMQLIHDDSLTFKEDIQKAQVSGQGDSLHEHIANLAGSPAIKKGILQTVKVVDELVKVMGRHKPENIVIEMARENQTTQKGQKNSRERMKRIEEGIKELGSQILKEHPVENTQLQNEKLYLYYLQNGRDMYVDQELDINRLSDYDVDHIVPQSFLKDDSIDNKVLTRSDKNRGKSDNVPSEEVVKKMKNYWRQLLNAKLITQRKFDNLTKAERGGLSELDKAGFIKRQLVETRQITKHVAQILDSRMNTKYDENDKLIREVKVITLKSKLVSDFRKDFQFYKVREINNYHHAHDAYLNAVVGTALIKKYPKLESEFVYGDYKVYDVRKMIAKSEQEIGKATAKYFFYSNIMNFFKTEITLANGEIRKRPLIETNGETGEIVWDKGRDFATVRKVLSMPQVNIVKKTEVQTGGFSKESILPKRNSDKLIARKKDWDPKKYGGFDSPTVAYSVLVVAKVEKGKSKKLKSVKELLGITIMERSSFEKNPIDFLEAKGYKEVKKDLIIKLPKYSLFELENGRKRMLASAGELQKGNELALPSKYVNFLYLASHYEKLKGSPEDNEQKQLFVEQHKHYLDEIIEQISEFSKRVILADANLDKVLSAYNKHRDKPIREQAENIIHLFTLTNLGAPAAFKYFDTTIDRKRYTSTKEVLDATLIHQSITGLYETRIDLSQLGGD

SpCas9 [2] = target: T1, SpCas9; experiment: stopped-flow and cleavage kinetics, global fit; Kd,net including R-loop formation; bracketed value, footnote 3 not in material, may be fixed or from earlier work; Reaction buffer, salt, pH and temperature not in the material; Mg2+ added to start cleavage, omitted for pre-equilibration
SpCas9 [3] = target: T1, SpCas9; experiment: stopped-flow and cleavage kinetics, global fit; 1/K1, initial binding step; Reaction buffer, salt, pH and temperature not in the material; Mg2+ added to start cleavage, omitted for pre-equilibration
SpCas9 [4] = target: T1, SpCas9; experiment: stopped-flow and cleavage kinetics, global fit; Kd,net including R-loop formation; Reaction buffer, salt, pH and temperature not in the material; Mg2+ added to start cleavage, omitted for pre-equilibration

Row | Binder | Kd (SpCas9 [1]) | Kd (SpCas9 [2]) | Kd (SpCas9 [3]) | Kd (SpCas9 [4])
1 | B1 | 3 nM | 1 nM |  | 
2 | B2 |  |  | 24 nM | 8.1 nM
